Measurements from publication PMC2586147.

Molecular target: K401-BIO-H6 R210K (Drosophila) (UniProt P17210)
Experiment: AUC

Substance | stoichiometry N
K401-BIO-H6 R210K (from UniProt P17210 1-401) (domain or fragment) | 2
K401 (from UniProt P17210 1-401) (domain or fragment) | 2
